These results are taken from paper doi:10.1101/209809 (bioRxiv, 2017).

For data set [1], the target named is T1, CPSF-160;WDR33 (1-572);CPSF-30 (human;human;human, UniProt Q10570;Q9C0J8;O95639-2 1-1443;1-572;1-244, ||). Nature of the data set: EMSA. Background: A gel shift assay detects complexes by their altered migration in electrophoresis.
Data set [2] deals with CPSF-160;WDR33 (1-572);MBP-CPSF-30(33-170) (human;human;human, UniProt Q10570;Q9C0J8;O95639-2 1-1443;1-572;33-170, ||). In words: EMSA.
Sequence of CPSF-160;WDR33 (1-572);MBP-CPSF-30(33-170) (Q10570 whole entry, chain 1 of 2, one chain of several): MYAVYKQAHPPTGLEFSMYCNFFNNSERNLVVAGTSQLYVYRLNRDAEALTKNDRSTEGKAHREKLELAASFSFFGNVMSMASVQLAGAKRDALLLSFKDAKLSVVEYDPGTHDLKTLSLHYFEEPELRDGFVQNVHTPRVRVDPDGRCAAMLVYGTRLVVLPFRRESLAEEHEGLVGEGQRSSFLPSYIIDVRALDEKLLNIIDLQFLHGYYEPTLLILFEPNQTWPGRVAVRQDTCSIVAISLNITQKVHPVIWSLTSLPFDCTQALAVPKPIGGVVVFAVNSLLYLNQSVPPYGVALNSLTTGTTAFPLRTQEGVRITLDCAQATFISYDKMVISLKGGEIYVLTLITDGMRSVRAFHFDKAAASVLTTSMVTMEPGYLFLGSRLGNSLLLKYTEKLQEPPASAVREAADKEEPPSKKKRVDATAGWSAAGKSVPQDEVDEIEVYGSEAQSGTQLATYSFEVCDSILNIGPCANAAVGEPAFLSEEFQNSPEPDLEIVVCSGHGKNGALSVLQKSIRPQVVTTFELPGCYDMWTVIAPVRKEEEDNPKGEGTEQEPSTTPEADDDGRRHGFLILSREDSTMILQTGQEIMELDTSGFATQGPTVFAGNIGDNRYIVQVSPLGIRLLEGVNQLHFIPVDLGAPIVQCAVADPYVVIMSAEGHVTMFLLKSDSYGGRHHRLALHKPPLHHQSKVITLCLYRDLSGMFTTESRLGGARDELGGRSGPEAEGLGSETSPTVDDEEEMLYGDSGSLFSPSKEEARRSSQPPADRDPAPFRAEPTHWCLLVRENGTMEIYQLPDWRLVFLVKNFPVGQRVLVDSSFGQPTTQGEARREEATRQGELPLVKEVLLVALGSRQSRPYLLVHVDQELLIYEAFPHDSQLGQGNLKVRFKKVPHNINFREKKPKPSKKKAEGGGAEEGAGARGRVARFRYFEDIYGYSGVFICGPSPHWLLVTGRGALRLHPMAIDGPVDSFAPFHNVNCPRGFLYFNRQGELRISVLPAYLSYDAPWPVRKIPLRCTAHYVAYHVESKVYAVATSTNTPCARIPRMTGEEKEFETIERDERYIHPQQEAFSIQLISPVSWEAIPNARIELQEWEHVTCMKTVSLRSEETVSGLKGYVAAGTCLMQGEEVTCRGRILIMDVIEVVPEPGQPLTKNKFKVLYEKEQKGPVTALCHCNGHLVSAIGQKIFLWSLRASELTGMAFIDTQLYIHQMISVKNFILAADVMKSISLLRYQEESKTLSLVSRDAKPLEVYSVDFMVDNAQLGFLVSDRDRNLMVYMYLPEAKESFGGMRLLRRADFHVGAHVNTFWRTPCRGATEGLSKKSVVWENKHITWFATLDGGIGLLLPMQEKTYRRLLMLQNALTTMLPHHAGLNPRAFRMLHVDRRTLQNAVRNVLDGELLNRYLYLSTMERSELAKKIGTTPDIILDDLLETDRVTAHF
Data set [3] has as its target T1, CPSF-160;WDR33 (1-572);CPSF-30. In words: cryo-EM structure.
The target in data set [4] is CPSF-160–WDR33 binary complex (human, UniProt Q10570 1-1443; Q9C0J8 1-572). In words: cryo-EM structure.
Sequence of CPSF-160–WDR33 binary complex (Q10570 whole entry, the tested form may be a part, one chain of several): as the sequence (Q10570 whole entry, chain 1 of 2, one chain of several) above
For data set [5], the target named is T2, N-terminal region of human WDR33 (residues 1-572) (human, UniProt Q9C0J8 1-572).
T2 sequence (looked up): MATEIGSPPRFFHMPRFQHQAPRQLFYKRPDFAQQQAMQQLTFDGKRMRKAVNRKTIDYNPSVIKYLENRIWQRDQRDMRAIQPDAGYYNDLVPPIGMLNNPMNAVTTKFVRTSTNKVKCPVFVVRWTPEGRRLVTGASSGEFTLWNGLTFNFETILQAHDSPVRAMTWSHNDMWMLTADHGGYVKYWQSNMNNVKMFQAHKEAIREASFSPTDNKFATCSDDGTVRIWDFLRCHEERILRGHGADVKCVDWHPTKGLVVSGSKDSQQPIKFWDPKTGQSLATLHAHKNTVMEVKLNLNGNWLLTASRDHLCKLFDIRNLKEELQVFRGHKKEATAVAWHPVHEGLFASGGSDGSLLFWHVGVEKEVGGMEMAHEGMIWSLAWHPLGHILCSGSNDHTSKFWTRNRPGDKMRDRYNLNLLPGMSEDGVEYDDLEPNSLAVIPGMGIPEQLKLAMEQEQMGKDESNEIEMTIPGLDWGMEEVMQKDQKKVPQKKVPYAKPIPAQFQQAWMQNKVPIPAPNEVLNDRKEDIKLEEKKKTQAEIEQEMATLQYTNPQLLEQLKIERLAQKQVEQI
In words: cryo-EM structure.

T1 sequence (Q10570 whole entry, one chain of several): as the sequence (Q10570 whole entry, chain 1 of 2, one chain of several) above

Take AACCUCCAAUAAACAAC (ssRNA) [17-mer PAS RNA (AAUAAA)]: the binding result in data set [1] and in data set [2] was “binds” throughout.
With AACCUCCAAUAAACAAC (ssRNA) [17-mer PAS RNA, unlabeled (EM)], the binding result in data set [3] is “binds”.

B1: full-length human CPSF-30 (isoform 2), MBP removed by TEV protease (natural protein, UniProt O95639-2 1-244, looked up)
chain: MQEIIASVDHIKFDLEIAVEQQLGAQPLPFPGMDKSGAAVCEFFLKAACGKGGMCPFRHISGEKTVVCKHWLRGLCKKGDQCEFLHEYDMTKMPECYFYSKFGECSNKECPFLHIDPESKIKDCPWYDRGFCKHGPLCRHRHTRRVICVNYLVGFCPEGPSCKFMHPRFELPMGTTEQPPLPQQTQPPAKQRTPQVIGVMQSQNSSAGNRGPRPLEQVTCYKCGEKGHYANRCTKGHLAFLSGQ
B1: the binding result in data set [4] and in data set [5] was “binds” each time.
